Results as given in patent US20120189572A1.

Legend:
[1] = molecular target: full length wild type human DR5 (human) (UniProt O14763); assay: cell-based or functional assay
[2] = molecular target: mDR5ectm-td1, extracellular and transmembrane domains of murine DR5 fused to tetanus toxin fragment (mouse); assay: flow cytometry on SKOV3 cells transfected with murine DR5 (mDR5ectm-td1)

UniProt O14763, sequence (O14763 other isoform, or with tags, fused parts or gaps limits assumed): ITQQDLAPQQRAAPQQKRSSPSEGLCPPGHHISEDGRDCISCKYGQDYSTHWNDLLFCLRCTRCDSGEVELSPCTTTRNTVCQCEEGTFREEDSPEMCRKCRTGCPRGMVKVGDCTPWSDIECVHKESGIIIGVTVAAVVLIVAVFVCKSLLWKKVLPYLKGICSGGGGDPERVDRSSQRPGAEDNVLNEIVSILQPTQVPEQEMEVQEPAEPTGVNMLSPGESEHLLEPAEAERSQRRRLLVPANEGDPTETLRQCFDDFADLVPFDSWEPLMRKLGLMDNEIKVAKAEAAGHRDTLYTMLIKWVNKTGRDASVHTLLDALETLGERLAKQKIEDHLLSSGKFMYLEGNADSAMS

| growth inhibition of SUM159 cells (MTT) at 1 µg/mL antibody [1] [%] | growth inhibition of SUM159 cells (MTT) at 2 µg/mL antibody [1] [%] | growth inhibition of SUM159 cells (MTT) at 4 µg/mL antibody [1] [%] | Substance | percent of cells stained [2] [%] |
| --- | --- | --- | --- | --- |
| 36 | 55 | 65 | human DR5 agonist monoclonal antibody mAb631 (clone 71903, MAB631; R&D Systems) | – |
| – | – | – | MD5-1, monoclonal antibody to mouse DR5 | 100 |
